B1: MATR3 (protein, UniProt P43243 2-847, looked up)
Matrin-3: SKSFQQSSLSRDSQGHGRDLSAAGIGLLAAATQSLSMPASLGRMNQGTARLASLMNLGMSSSLNQQGAHSALSSASTSSHNLQSIFNIGSRGPLPLSSQHRGDADQASNILASFGLSARDLDELSRYPEDKITPENLPQILLQLKRRRTEEGPTLSYGRDGRSATREPPYRVPRDDWEEKRHFRRDSFDDRGPSLNPVLDYDHGSRSQESGYYDRMDYEDDRLRDGERCRDDSFFGETSHNYHKFDSEYERMGRGPGPLQERSLFEKKRGAPPSSNIEDFHGLLPKGYPHLCSICDLPVHSNKEWSQHINGASHSRRCQLLLEIYPEWNPDNDTGHTMGDPFMLQQSTNPAPGILGPPPPSFHLGGPAVGPRGNLGAGNGNLQGPRHMQKGRVETSRVVHIMDFQRGKNLRYQLLQLVEPFGVISNHLILNKINEAFIEMATTEDAQAAVDYYTTTPALVFGKPVRVHLSQKYKRIKKPEGKPDQKFDQKQELGRVIHLSNLPHSGYSDSAVLKLAEPYGKIKNYILMRMKSQAFIEMETREDAMAMVDHCLKKALWFQGRCVKVDLSEKYKKLVLRIPNRGIDLLKKDKSRKRSYSPDGKESPSDKKSKTDGSQKTESSTEGKEQEEKSGEDGEKDTKDDQTEQEPNMLLESEDELLVDEEEAAALLESGSSVGDETDLANLGDVASDGKKEPSDKAVKKDGSASAAAKKKLKKVDKIEELDQENEAALENGIKNEENTEPGAESSENADDPNKDTSENADGQSDENKDDYTIPDEYRIGPYQPNVPVGIDYVIPKTGFYCKLCSLFYTNEEVAKNTHCSSLPHYQKLKKFLNKLAEERRQKKET
B2: COPB1 (protein, UniProt P53618 2-953, looked up)
Coatomer subunit beta: TAAENVCYTLINVPMDSEPPSEISLKNDLEKGDVKSKTEALKKVIIMILNGEKLPGLLMTIIRFVLPLQDHTIKKLLLVFWEIVPKTTPDGRLLHEMILVCDAYRKDLQHPNEFIRGSTLRFLCKLKEAELLEPLMPAIRACLEHRHSYVRRNAVLAIYTIYRNFEHLIPDAPELIHDFLVNEKDASCKRNAFMMLIHADQDRALDYLSTCIDQVQTFGDILQLVIVELIYKVCHANPSERARFIRCIYNLLQSSSPAVKYEAAGTLVTLSSAPTAIKAAAQCYIDLIIKESDNNVKLIVLDRLIELKEHPAHERVLQDLVMDILRVLSTPDLEVRKKTLQLALDLVSSRNVEELVIVLKKEVIKTNNVSEHEDTDKYRQLLVRTLHSCSVRFPDMAANVIPVLMEFLSDNNEAAAADVLEFVREAIQRFDNLRMLIVEKMLEVFHAIKSVKIYRGALWILGEYCSTKEDIQSVMTEIRRSLGEIPIVESEIKKEAGELKPEEEITVGPVQKLVTEMGTYATQSALSSSRPTKKEEDRPPLRGFLLDGDFFVAASLATTLTKIALRYVALVQEKKKQNSFVAEAMLLMATILHLGKSSLPKKPITDDDVDRISLCLKVLSECSPLMNDIFNKECRQSLSHMLSAKLEEEKLSQKKESEKRNVTVQPDDPISFMQLTAKNEMNCKEDQFQLSLLAAMGNTQRKEAADPLASKLNKVTQLTGFSDPVYAEAYVHVNQYDIVLDVLVVNQTSDTLQNCTLELATLGDLKLVEKPSPLTLAPHDFANIKANVKVASTENGIIFGNIVYDVSGAASDRNCVVLSDIHIDIMDYIQPATCTDAEFRQMWAEFEWENKVTVNTNMVDLNDYLQHILKSTNMKCLTPEKALSGYCGFMAANLYARSIFGEDALANVSIEKPIHQGPDAAVTGHIRIRAKSQGMALSLGDKINLSQKKTSI
B3: HSPD1 (protein, UniProt P10809 27-573, looked up)
60 kDa heat shock protein, …: AKDVKFGADARALMLQGVDLLADAVAVTMGPKGRTVIIEQSWGSPKVTKDGVTVAKSIDLKDKYKNIGAKLVQDVANNTNEEAGDGTTTATVLARSIAKEGFEKISKGANPVEIRRGVMLAVDAVIAELKKQSKPVTTPEEIAQVATISANGDKEIGNIISDAMKKVGRKGVITVKDGKTLNDELEIIEGMKFDRGYISPYFINTSKGQKCEFQDAYVLLSEKKISSIQSIVPALEIANAHRKPLVIIAEDVDGEALSTLVLNRLKVGLQVVAVKAPGFGDNRKNQLKDMAIATGGAVFGEEGLTLNLEDVQPHDLGKVGEVIVTKDDAMLLKGKGDKAQIEKRIQEIIEQLDVTTSEYEKEKLNERLAKLSDGVAVLKVGGTSDVEVNEKKDRVTDALNATRAAVEEGIVLGGGCALLRCIPALDSLTPANEDQKIGIEIIKRTLKIPAMTIAKNAGVEGSLIVEKIMQSSSEVGYDAMAGDFVNMVEKGIIDPTKVVRTALLDAAGVASLLTTAEVVVTEIPKEEKDPGMGAMGGMGGGMGGGMF
B4: CDR2L (protein, UniProt Q86X02 1-465, looked up)
Cerebellar …: MRRAAGMEDFSAEEEESWYDQQDLEQDLHLAAELGKTLLERNKELEGSLQQMYSTNEEQVQEIEYLTKQLDTLRHVNEQHAKVYEQLDLTARDLELTNHRLVLESKAAQQKIHGLTETIERLQAQVEELQAQVEQLRGLEQLRVLREKRERRRTIHTFPCLKELCTSPRCKDAFRLHSSSLELGPRPLEQENERLQTLVGALRSQVSQERQRKERAEREYTAVLQEYSELERQLCEMEACRLRVQELEAELLELQQMKQAKTYLLGPDDHLAEALLAPLTQAPEADDPQPGRGDDLGAQDGVSSPAASPGHVVRKSCSDTALNAIVAKDPASRHAGNLTLHANSVRKRGMSILREVDEQYHALLEKYEELLSKCRQHGAGVRHAGVQTSRPISRDSSWRDLRGGEEGQGEVKAGEKSLSQHVEAVDKRLEQSQPEYKALFKEIFSRIQKTKADINATKVKTHSSK
B5: UTP18 (protein, UniProt Q9Y5J1 1-556, looked up)
U3 small nucleolar …: MPPERRRRMKLDRRTGAKPKRKPGMRPDWKAGAGPGGPPQKPAPSSQRKPPARPSAAAAAIAVAAAEEERRLRQRNRLRLEEDKPAVERCLEELVFGDVENDEDALLRRLRGPRVQEHEDSGDSEVENEAKGNFPPQKKPVWVDEEDEDEEMVDMMNNRFRKDMMKNASESKLSKDNLKKRLKEEFQHAMGGVPAWAETTKRKTSSDDESEEDEDDLLQRTGNFISTSTSLPRGILKMKNCQHANAERPTVARISSVQFHPGAQIVMVAGLDNAVSLFQVDGKTNPKIQSIYLERFPIFKACFSANGEEVLATSTHSKVLYVYDMLAGKLIPVHQVRGLKEKIVRSFEVSPDGSFLLINGIAGYLHLLAMKTKELIGSMKINGRVAASTFSSDSKKVYASSGDGEVYVWDVNSRKCLNRFVDEGSLYGLSIATSRNGQYVACGSNCGVVNIYNQDSCLQETNPKPIKAIMNLVTGVTSLTFNPTTEILAIASEKMKEAVRLVHLPSCTVFSNFPVIKNKNISHVHTMDFSPRSGYFALGNEKGKALMYRLHHYSDF
B6: NOLC1 (protein, UniProt Q14978 1-699, looked up)
Nucleolar and coiled-body …: MADAGIRRVVPSDLYPLVLGFLRDNQLSEVANKFAKATGATQQDANASSLLDIYSFWLKSAKVPERKLQANGPVAKKAKKKASSSDSEDSSEEEEEVQGPPAKKAAVPAKRVGLPPGKAAAKASESSSSEESSDDDDEEDQKKQPVQKGVKPQAKAAKAPPKKAKSSDSDSDSSSEDEPPKNQKPKITPVTVKAQTKAPPKPARAAPKIANGKAASSSSSSSSSSSSDDSEEEKAAATPKKTVPKKQVVAKAPVKAATTPTRKSSSSEDSSSDEEEEQKKPMKNKPGPYSSVPPPSAPPPKKSLGTQPPKKAVEKQQPVESSEDSSDESDSSSEEEKKPPTKAVVSKATTKPPPAKKAAESSSDSSDSDSSEDDEAPSKPAGTTKNSSNKPAVTTKSPAVKPAAAPKQPVGGGQKLLTRKADSSSSEEESSSSEEEKTKKMVATTKPKATAKAALSLPAKQAPQGSRDSSSDSDSSSSEEEEEKTSKSAVKKKPQKVAGGAAPSKPASAKKGKAESSNSSSSDDSSEEEEEKLKGKGSPRPQAPKANGTSALTAQNGKAAKNSEEEEEEKKKAAVVVSKSGSLKKRKQNEAAKEAETPQAKKIKLQTPNTFPKRKKGEKRASSPFRRVREEEIEVDSRVADNSFDAKRGAAGDWGERANQVLKFTKGKSFRHEKTKKKRGSYRGGSISVQVNSIKFDSE
B7: CDC42EP1 (protein, UniProt Q00587 1-391, looked up)
Cdc42 effector protein 1: MPGPQGGRGAATMSLGKLSPVGWVSSSQGKRRLTADMISHPLGDFRHTMHVGRGGDVFGDTSFLSNHGGSSGSTHRSPRSFLAKKLQLVRRVGAPPRRMASPPAPSPAPPAISPIIKNAISLPQLNQAAYDSLVVGKLSFDSSPTSSTDGHSSYGLDSGFCTISRLPRSEKPHDRDRDGSFPSEPGLRRSDSLLSFRLDLDLGPSLLSELLGVMSLPEAPAAETPAPAANPPAPTANPTGPAANPPATTANPPAPAANPSAPAATPTGPAANPPAPAASSTPHGHCPNGVTAGLGPVAEVKSSPVGGGPRGPAGPALGRHWGAGWDGGHHYPEMDARQERVEVLPQARASWESLDEEWRAPQAGSRTPVPSTVQANTFEFADAEEDDEVKV
B8: SLC16A3 (protein, UniProt O15427 2-465, looked up)
Monocarboxylate transporter 4: GGAVVDEGPTGVKAPDGGWGWAVLFGCFVITGFSYAFPKAVSVFFKELIQEFGIGYSDTAWISSILLAMLYGTGPLCSVCVNRFGCRPVMLVGGLFASLGMVAASFCRSIIQVYLTTGVITGLGLALNFQPSLIMLNRYFSKRRPMANGLAAAGSPVFLCALSPLGQLLQDRYGWRGGFLILGGLLLNCCVCAALMRPLVVTAQPGSGPPRPSRRLLDLSVFRDRGFVLYAVAASVMVLGLFVPPVFVVSYAKDLGVPDTKAAFLLTILGFIDIFARPAAGFVAGLGKVRPYSVYLFSFSMFFNGLADLAGSTAGDYGGLVVFCIFFGISYGMVGALQFEVLMAIVGTHKFSSAIGLVLLMEAVAVLVGPPSGGKLLDATHVYMYVFILAGAEVLTSSLILLLGNFFCIRKKPKEPQPEVAAAEEEKLHKPPADSGVDLREVEHFLKAEPEKNGEVVHTPETSV
B9: KRT18 (protein, UniProt P05783 2-430, looked up)
Keratin, type I cytoskeletal …: SFTTRSTFSTNYRSLGSVQAPSYGARPVSSAASVYAGAGGSGSRISVSRSTSFRGGMGSGGLATGIAGGLAGMGGIQNEKETMQSLNDRLASYLDRVRSLETENRRLESKIREHLEKKGPQVRDWSHYFKIIEDLRAQIFANTVDNARIVLQIDNARLAADDFRVKYETELAMRQSVENDIHGLRKVIDDTNITRLQLETEIEALKEELLFMKKNHEEEVKGLQAQIASSGLTVEVDAPKSQDLAKIMADIRAQYDELARKNREELDKYWSQQIEESTTVVTTQSAEVGAAETTLTELRRTVQSLEIDLDSMRNLKASLENSLREVEARYALQMEQLNGILLHLESELAQTRAEGQRQAQEYEALLNIKVKLEAEIATYRRLLEDGEDFNLGDALDSSNSMQTIQKTTTRRIVDGKVVSETNDTKVLRH

System: GFP-14-3-3β and its binding proteins
Assay: GFP-14-3-3β co-IP with LC-MS/MS label-free quantification, untreated versus PP1c-treated
Design: species or system human
Details: GFP-14-3-3β co-IP LC-MS/MS; PP1 vs untreated; student's t-test; label-free quantification, 3 replicates each

| Molecule | Difference (log2), PP1 vs untreated [log2] |
| --- | --- |
| B1 | -0.7331 |

Same assay, conditions: PP1 vs untreated; LFQ intensities, replicates 1-3

| Molecule | Difference (log2), PP1 vs untreated [log2] |
| --- | --- |
| B2 | -0.8147 |
| B3 | -0.8196 |
| B4 | -0.8285 |
| B5 | -0.8415 |
| B6 | -0.8521 |
| B7 | -0.8522 |

Same assay, conditions: log2 difference; pairwise comparison PP1 vs untreated, label-free quantification, 3 replicates each

| Molecule | Difference (log2), PP1 vs untreated |
| --- | --- |
| B8 | 1.651 |
| B9 | 1.649 |

System: GFP-14-3-3β
Assay: GFP-14-3-3β co-IP with LC-MS/MS, untreated GFP-14-3-3β versus GFP control (14-3-3 interactome)
Assay type: binding, human
Details: GFP-14-3-3β co-IP LC-MS/MS; untreated vs GFP; student's t-test; label-free quantification, 3 replicates each

| Molecule | Difference (log2), untreated vs GFP [log2] |
| --- | --- |
| B1 | 1.234 |

Same assay, conditions: log2 difference; pairwise comparison untreated vs GFP, label-free quantification, 3 replicates each

| Molecule | Difference (log2), untreated vs GFP |
| --- | --- |
| B8 | 0.1883 |
| B9 | -2.259 |

Same assay, conditions: untreated vs GFP; LFQ intensities, replicates 1-3

| Molecule | Difference (log2), untreated vs GFP [log2] |
| --- | --- |
| B2 | 0.6071 |
| B3 | -0.2089 |
| B4 | 4.028 |
| B5 | 2.416 |
| B6 | 2.872 |
| B7 | 1.906 |

Source: PMC7367873, “Dissecting the sequence determinants for dephosphorylation by the catalytic subunits of phosphatases PP1 and PP2A” (Nature Communications, 2020)
